From patent US4642335A, “Anthracycline compounds bound to hydrophilic polypeptides” (Ajinomoto Co., Inc., priority 1984, dated 1987)

B1: HB-10(A): NCS-apoprotein and daunomycin combined at molar ratio 1:1 (conjugate, UniProt P0A3R9 35-147, looked up)
Neocarzinostatin: AAPTATVTPSSGLSDGTVVKVAGAGLQAGTAYDVGQCAWVDTGVLACNPADFSSVTADANGSASTSLTVRRSFEGFLFDGTRWGTVDCTTAACQVGLSDAAGNGPEGVAISFN
modifications: complex with daunomycin, 1:1
B2: HB-10(C): NCS-apoprotein and daunomycin combined at molar ratio 2:1 (conjugate, UniProt P0A3R9 35-147, looked up)
Neocarzinostatin: B1 Neocarzinostatin
modifications: daunomycin conjugate, 2:1
B3: HB-10(B): NCS-apoprotein and daunomycin combined at molar ratio 1:10 (conjugate, UniProt P0A3R9 35-147, looked up)
Neocarzinostatin: B1 Neocarzinostatin
modifications: daunomycin conjugate, 1:10
B4: HBW-18(A): NCS-apoprotein and cosmomycin A bound together, molar ratio 1:1 (conjugate, UniProt P0A3R9 35-147, looked up)
Neocarzinostatin: B1 Neocarzinostatin
modifications: complex with cosmomycin A, 1:1
B5: HBW-22(B): NCS-apoprotein and γ-rhodomycin Y bound together, molar ratio 1:5 (conjugate, UniProt P0A3R9 35-147, looked up)
Neocarzinostatin: B1 Neocarzinostatin
modifications: complex with gamma-rhodomycin Y, 1:5
B6: HB-18(A): NCS-apoprotein and cosmomycin A bound together, molar ratio 1:1 (conjugate, UniProt P0A3R9 35-147, looked up)
Neocarzinostatin: B1 Neocarzinostatin
modifications: cosmomycin A conjugate, 1:1
B7: HB-21(A): NCS-apoprotein and aclacinomycin A bound together, molar ratio 1:1 (conjugate, UniProt P0A3R9 35-147, looked up)
Neocarzinostatin: B1 Neocarzinostatin
modifications: complex with aclacinomycin A, 1:1
B8: HB-22(B): NCS-apoprotein and γ-rhodomycin Y bound together, molar ratio 1:5 (conjugate, UniProt P0A3R9 35-147, looked up)
Neocarzinostatin: B1 Neocarzinostatin
modifications: γ-rhodomycin Y conjugate, 1:5
B9: HB-18(B): NCS-apoprotein and cosmomycin A bound together, molar ratio 1:5 (conjugate, UniProt P0A3R9 35-147, looked up)
Neocarzinostatin: B1 Neocarzinostatin
modifications: cosmomycin A conjugate, 1:5
B10: HBW-20(B): NCS-apoprotein and adriamycin bound together, molar ratio 1:5 (conjugate, UniProt P0A3R9 35-147, looked up)
Neocarzinostatin: B1 Neocarzinostatin
modifications: adriamycin conjugate, 1:5
B11: HBW-20(A): NCS-apoprotein and adriamycin bound together, molar ratio 1:1 (conjugate, UniProt P0A3R9 35-147, looked up)
Neocarzinostatin: B1 Neocarzinostatin
modifications: noncovalent complex with adriamycin, 1:1
B12: HB-22(A): NCS-apoprotein and γ-rhodomycin Y bound together, molar ratio 1:1 (conjugate, UniProt P0A3R9 35-147, looked up)
Neocarzinostatin: B1 Neocarzinostatin
modifications: complex with gamma-rhodomycin Y, 1:1
B13: HBW-22(A): NCS-apoprotein and γ-rhodomycin Y bound together, molar ratio 1:1 (conjugate, UniProt P0A3R9 35-147, looked up)
Neocarzinostatin: B1 Neocarzinostatin
modifications: γ-rhodomycin Y conjugate, 1:1
B14: HB-20(A): NCS-apoprotein and adriamycin bound together, molar ratio 1:1 (conjugate, UniProt P0A3R9 35-147, looked up)
Neocarzinostatin: B1 Neocarzinostatin
modifications: complex with adriamycin, 1:1
B15: HB-21(B): NCS-apoprotein and aclacinomycin A bound together, molar ratio 1:5 (conjugate, UniProt P0A3R9 35-147, looked up)
Neocarzinostatin: B1 Neocarzinostatin
modifications: aclacinomycin A conjugate, 1:5
B16: HBW-18(B): NCS-apoprotein and cosmomycin A bound together, molar ratio 1:5 (conjugate, UniProt P0A3R9 35-147, looked up)
Neocarzinostatin: B1 Neocarzinostatin
modifications: complex with cosmomycin A, 1:5
B17: HB-10(D): NCS-apoprotein and daunomycin combined at molar ratio 4:1 (conjugate, UniProt P0A3R9 35-147, looked up)
Neocarzinostatin: B1 Neocarzinostatin
modifications: complex with daunomycin, 4:1
B18: HB-20(B): NCS-apoprotein and adriamycin bound together, molar ratio 1:5 (conjugate, UniProt P0A3R9 35-147, looked up)
Neocarzinostatin: B1 Neocarzinostatin
modifications: complex with adriamycin, 1:5
B19: HBW-10(B): NCS-apoprotein and daunomycin bound through hydrogen bond and/or hydrophobic bond, molar ratio 1:5 (conjugate, UniProt P0A3R9 35-147, looked up)
Neocarzinostatin: B1 Neocarzinostatin
modifications: noncovalent complex with daunomycin, 1:5

Tested on: mouse L1210 leukemia
Assay: antitumor activity against mouse L1210 leukemia, life prolongation rate
Type: in vivo
Conditions: once a day for five days starting 24 hours after tumor cell injection, control survival day = 100%
Experimental: These HB-6 substances were tested for their antitumor activity in terms of mouse L1210 leukemia. L1210 leukemia cells (1×10^5) were abdominally injected to each mouse, and the test sample was administered once a day for consecutive five days, with the first administration being started 24 hours after injection of the tumor cells. The result is summarized in Table 1, in which the antitumor activity of each drug is expressed as life prolongation rate, taking the survival day for the control group as 100%.
These HBW-6 substances were tested for their antitumor activity in terms of mouse L1210 leukemia. L1210 leukemia cells (1×10^5) were abdominally injected to each mouse, and the test sample was administered once a day for consecutive five days, with the first administration being started 24 hours after injection of the tumor cells. The result is summarized in Table 2, in which the antitumor activity of each drug is expressed as life prolongation rate, taking the survival day for the control group as 100%.

Molecule | Life Prolongation Rate (dose 2 mg/Kg) [%] | Life Prolongation Rate (dose 1 mg/Kg) [%]
CC[C@@]1(O)C[C@H](O[C@H]2C[C@H](N(C)C)[C@H](O[C@H]3C[C@H](O)[C@H](O[C@H]4CCC(=O)[C@H](C)O4)[C@H](C)O3)[C@H](C)O2)c2c(cc3c(c2O)C(=O)c2c(O)cccc2C3=O)[C@H]1C(=O)OC [Aclacinomycin A, aclacinomycin A, reference compound] | 135 | 
COc1cccc2c1C(=O)c1c(O)c3c(c(O)c1C2=O)C[C@@](O)(C(=O)CO)C[C@@H]3O[C@H]1C[C@H](N)[C@H](O)[C@H](C)O1 [Adriamycin, adriamycin, reference compound] | 150 | 
B1 | 250 | 
B2 | 230 | 
B3 | 265 | 
B4 |  | 170
B5 |  | 162
B6 | 168 | 
B7 | 142 | 
B8 |  | 150
B9 | 170 | 
B10 |  | 245
B11 |  | 268
B12 |  | 145
B13 |  | 158
B14 | 200 | 
B15 | 145 | 
B16 |  | 175
B17 | 200 | 
B18 | 205 | 
B19 |  | 270
